PMC3904923

Columns and labels:
[1] = target: Kv7.2 helix B (hB residues S450–S590) (human); assay: other fluorescence titration; competition: 12.5 nM D-CaM mixed with helix A (46.4 nM) or helix B (20.1 nM), isolated lobe added incrementally; no Ca2+; one site Hill fit, Kd derived assuming 1:1 binding
[2] = target: Kv7.2 helix B (hB residues S450–S590) (human); assay: other fluorescence titration; competition: 12.5 nM D-CaM mixed with helix A (65.6 nM) or helix B (42.6 nM), isolated lobe added incrementally; with Ca2+; one site Hill fit, Kd derived assuming 1:1 binding
[3] = target: dansylated calmodulin (rat) (UniProt P0DP30); assay: other fluorescence titration; 12.5 nM D-CaM, ligand added incrementally, enhancement of dansyl emission; D-CaM binding buffer with 3.9 µM free Ca2+ (9.63 mM Ca2+, 2 mM Mg2+, 10 mM EGTA, pH 7.4); apparent affinity (EC50 of a Hill fit)
[4] = target: dansylated calmodulin (rat) (UniProt P0DP30); assay: other fluorescence titration; 12.5 nM D-CaM, ligand added incrementally, enhancement of dansyl emission; 25 mM Tris-HCl, 120 mM KCl, 5 mM NaCl, 2 mM MgCl2, 10 mM EGTA, pH 7.4; no free Ca2+; apparent affinity (EC50 of a Hill fit)

IC50 [1] | Kd [1] | IC50 [2] | Kd [2] | EC50 [3] | EC50 [4] | Substance
238 nM | 231 nM | 244 nM | 229 nM | – | – | CaM C-lobe (residues 79–148) (from UniProt P0DP23 80-149) (domain or fragment)
130 nM | 119 nM | 415 nM | 414 nM | – | – | CaM N-lobe (residues 1–78) (from UniProt P0DP23 2-79) (domain or fragment)
– | – | – | – | 27.1 nM | 11 nM | Kv7.2 CaM binding domain (residues 310–548), Q2AB WT (domain or fragment)
– | – | – | – | 42.6 nM | 20.1 nM | Kv7.2 helix B (hB residues S450–S590) (domain or fragment)
